# Molecular target: EutQ (residues 1 to 229) (S. Typhimurium LT2, UniProt Q9ZFV5 1-229)
# Assay: ITC
# Chain of EutQ (residues 1 to 229) (Q9ZFV5 whole entry, the tested form may be a part): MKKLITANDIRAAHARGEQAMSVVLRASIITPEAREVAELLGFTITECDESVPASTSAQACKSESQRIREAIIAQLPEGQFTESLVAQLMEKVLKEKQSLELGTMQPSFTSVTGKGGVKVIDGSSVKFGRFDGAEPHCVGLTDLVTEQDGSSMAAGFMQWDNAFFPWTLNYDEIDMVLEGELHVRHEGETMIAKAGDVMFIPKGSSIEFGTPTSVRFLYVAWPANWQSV
binder,measurement,value
MNQQDIEQVVKAVLLKMKDS [EutE^1–20 encapsulation peptide],Kd,14.1 µM
